In the RNAGym collection of RNA variant scans (doi:10.1101/gr.219683.116):

B1: mRNA-splicing (parent)
chain: AGUUGCUGCUGGGAGCUCCAGCACAGUGAAAUGGACAGAAGGGCAGAGCAA

Variants of: B1
Test: exon inclusion enrichment index; higher = more inclusion; WT1 exon 5 minigene, HEK293

Point of comparison: A40G G41C, “exon inclusion enrichment index” value 0.927. Against it:
- A30C A31C — lower, 0.337
- A23G C24A — higher, 1.56
- A23G C24U — lower, 0.167
- A23G C24G — higher, 1.64
- A40G G41A — lower, 0.0243
- A40G G41U — lower, 0.153
- G42U — lower, 0.329
- G42A — lower, 0.734
- G42C — lower, 0.853
- G26A U27G — lower, 0.311
- G26A U27C — lower, 0.0175
- G26A U27A — lower, 0.101
- G38A A39U — lower, 0.00515
- G38A A39G — lower, 0.186
- G38A A39C — lower, 0.13
- G28A A29G — lower, 0.0365
- G28A A29C — lower, 0.0703
- G28A A29U — lower, 0.00899
- G28U — lower, 0.0227
- G28A — lower, 0.0138
- G28C — lower, 0.104
- A37G — lower, 0.438
- A37C — lower, 0.637
- A37U — lower, 0.121
- G42A G43A — higher, 1.43
- G42A G43C — higher, 2.4
- G42A G43U — higher, 1.63
- A40U G41C — lower, 0.701
- A40U G41A — lower, 0.00196
- A40U G41U — lower, 0.0512
- G33U G34C — lower, 0.0208
- G33U G34U — lower, 0.0123
- G33U G34A — lower, 0.00421
- A37U G38C — lower, 0.0886
- A37U G38A — lower, 0.0367
- A37U G38U — lower, 0.0123
- U27C G28U — lower, 0.00627
- U27C G28A — lower, 0.0654
- U27C G28C — lower, 0.105
- A20C G21C — lower, 0.634
- A20C G21A — higher, 1.19
- A20C G21U — higher, 1.49
- G21A C22U — higher, 1.19
- G21A C22G — higher, 2.36
- G21A C22A — higher, 1.17
- G28U A29G — lower, 0.0875
- G28U A29C — lower, 0.0665
- G28U A29U — lower, 0.00946
- A39C A40C — lower, 0.407
- A39C A40G — lower, 0.223
- A39C A40U — lower, 0.0469
- U27A G28C — lower, 0.192
- U27A G28A — lower, 0.181
- U27A G28U — lower, 0.0261
- A40C G41C — lower, 0.92
- A40C G41U — lower, 0.0496
- A40C G41A — lower, 0.0344
- G41U G42A — lower, 0.0358
- G41U G42C — lower, 0.49
- G41U G42U — lower, 0.192
- C24G A25C — lower, 0.0375
- C24G A25G — lower, 0.0325
- C24G A25U — lower, 0.0194
- G33C G34A — lower, 0.0659
- G33C G34U — lower, 0.0871
- G33C G34C — lower, 0.0456
- C22A A23C — higher, 2.97
- C22A A23U — higher, 1.56
- C22A A23G — higher, 1.76
- C19A — higher, 1.49
- C19G — higher, 2.42
- C19U — lower, 0.199
- C22U A23U — higher, 1.19
- C22U A23G — higher, 1.77
- C22U A23C — higher, 1.24
- G33C — lower, 0.179
- G33U — lower, 0.0261
- G33A — lower, 0.0129
- A29C A30U — lower, 0.0782
- A29C A30C — lower, 0.418
- A29C A30G — lower, 0.677
- A20G — higher, 1.58
- A20U — higher, 2.62
